Drawing on the RNAGym collection of RNA variant scans (doi:10.7554/elife.80360), this text covers self-cleavage for 57 variants.

The chains are these.
B1: Hammerhead Ribozyme (parent)
chain: ACCGGAUGUGCUUUCCGGUCUGAUGAGUCCGUGAGGACGAAACAG

The variants in the data set derive from B1. Put plainly: self-cleavage, relative activity (ratio to wild type); higher = more cleavage; co-transcriptional.
As to ACCGGAUGUGCUUUCCGGACUGAUGAGUCCGUGAGGACGAAGCAG [U19A A42G], the self-cleavage turned out to be 0.34.

Take ACCGGAUGUGCUUUCCGGACUGAUGAGUCCGUGAGGACGAACCAG [U19A A42C]: the self-cleavage was determined as 0.369.

For the variant ACCGGAUGUGCUUUCCGUUCUGAUGAGUCCGUGAUGACGAAACAG [G18U G35U], the self-cleavage is 0.532.

For ACCGGAUGUGCUUUCCGUUCUGAUGAGUCCGUGAAGACGAAACAG [G18U G35A], the self-cleavage came to 0.555.

Take ACCGGAUGUGCUUUCCGUUCUGAUGAGUCCGUGACGACGAAACAG [G18U G35C]: the self-cleavage was found to be 0.515.

On to ACCGGAUGUGCUUUCCGCUCUGAUGAGCCCGUGAGGACGAAACAG [G18C U28C], for which the self-cleavage is 0.263.

In the case of ACCGGAUGUGCUUUCCGCUCUGAUGAGGCCGUGAGGACGAAACAG [G18C U28G], the self-cleavage is 0.44.

On to ACCGGAUGUGCUUUCCGGACUGAUGAGUCCGUGAGGGCGAAACAG [U19A A37G], for which the self-cleavage was 0.326.

Take ACCGGAUGUGCUUUCCGGACUGAUGAGUCCGUGAGGUCGAAACAG [U19A A37U]: the self-cleavage stood at 0.281.

ACCGGAUGUGCUUUCCGGACUGAUGAGUCCGUGAGGCCGAAACAG [U19A A37C]: the self-cleavage is 0.43.

Turning to ACCGGAUGUGCUUUCCGCUCUGAUGAGUCCGGGAGGACGAAACAG [G18C U32G], the self-cleavage came out at 0.503.

On to ACCGGAUGUGCUUUCCGCUCUGAUGAGUCCGCGAGGACGAAACAG [G18C U32C], for which the self-cleavage was found to be 0.446.

ACCGGAUGUGCUUUCCGCUCUGAUGAGUCCGAGAGGACGAAACAG [G18C U32A]: the self-cleavage was 0.554.

Consider ACCGGAUGUGCUUUCCGUUCUGAUGAGUCCGUGAGGACCAAACAG [G18U G39C], for which the self-cleavage turned out to be 0.32.

For the variant ACCGGAUGUGCUUUCCGUUCUGAUGAGUCCGUGAGGACAAAACAG [G18U G39A], the self-cleavage is 0.339.

Take ACCGGAUGUGCUUUCCGUUCUGAUGAGUCCGUGAGGACUAAACAG [G18U G39U]: the self-cleavage came to 0.392.

For the variant ACCGGAUGUGCUUUCCGUUCUGAUGAGCCCGUGAGGACGAAACAG [G18U U28C], the self-cleavage is 0.351.

On to ACCGGAUGUGCUUUCCGUUCUGAUGAGGCCGUGAGGACGAAACAG [G18U U28G], for which the self-cleavage stood at 0.581.

In the case of ACCGGAUGUGCUUUCCGUUCUGAUGAGACCGUGAGGACGAAACAG [G18U U28A], the self-cleavage amounted to 0.461.

As to ACCGGAUGUGCUUUCCGUUCUGGUGAGUCCGUGAGGACGAAACAG [G18U A23G], the self-cleavage was 0.288.

As to ACCGGAUGUGCUUUCCGUUCUGUUGAGUCCGUGAGGACGAAACAG [G18U A23U], the self-cleavage is 0.342.

Take ACCGGAUGUGCUUUCCGUUCUGCUGAGUCCGUGAGGACGAAACAG [G18U A23C]: the self-cleavage came to 0.367.

In the case of ACCGGAUGUGCUUUCCGUUCUGAUGAGUCCGUGAGGACGAAAGAG [G18U C43G], the self-cleavage turned out to be 0.373.

Take ACCGGAUGUGCUUUCCGUUCUGAUGAGUCCGUGAGGACGAAAUAG [G18U C43U]: the self-cleavage is 0.402.

ACCGGAUGUGCUUUCCGUUCUGAUGAGUCCGUGAGGACGAAAAAG [G18U C43A]: the self-cleavage worked out at 0.286.

In the case of ACCGGAUGUGCUUUCCGUUCUGAUGAGUCCGUGAGGACGAAACAC [G18U G45C], the self-cleavage came out at 0.476.

As for ACCGGAUGUGCUUUCCGUUCUGAUGAGUCCGUGAGGACGAAACAA [G18U G45A], the self-cleavage is 0.379.

For ACCGGAUGUGCUUUCCGUUCUGAUGAGUCCGUGAGGACGAAACAU [G18U G45U], the self-cleavage stood at 0.475.

Regarding ACCGGAUGUGCUUUCCGGACUGAUGAGUCCGUGAGGACGAAACUG [U19A A44U], the self-cleavage stood at 0.262.

Take ACCGGAUGUGCUUUCCGGACUGAUGAGUCCGUGAGGACGAAACGG [U19A A44G]: the self-cleavage was found to be 0.512.

As for ACCGGAUGUGCUUUCCGGACUGAUGAGUCCGUGAGGACGAAACCG [U19A A44C], the self-cleavage came to 0.368.

ACCGGAUGUGCUUUCCGUUGUGAUGAGUCCGUGAGGACGAAACAG [G18U C20G]: the self-cleavage turned out to be 0.382.

Take ACCGGAUGUGCUUUCCGUUUUGAUGAGUCCGUGAGGACGAAACAG [G18U C20U]: the self-cleavage is 0.437.

On to ACCGGAUGUGCUUUCCGUUAUGAUGAGUCCGUGAGGACGAAACAG [G18U C20A], for which the self-cleavage was 0.326.

ACCGGAUGUGCUUUCCGGAGUGAUGAGUCCGUGAGGACGAAACAG [U19A C20G]: the self-cleavage was found to be 0.31.

As for ACCGGAUGUGCUUUCCGGAAUGAUGAGUCCGUGAGGACGAAACAG [U19A C20A], the self-cleavage was found to be 0.287.

For the variant ACCGGAUGUGCUUUCCGUUCUGAUGAGUCCGUGAGGAGGAAACAG [G18U C38G], the self-cleavage was determined as 0.442.

Regarding ACCGGAUGUGCUUUCCGUUCUGAUGAGUCCGUGAGGAAGAAACAG [G18U C38A], the self-cleavage turned out to be 0.527.

ACCGGAUGUGCUUUCCGUUCUGAUGAGUCCGUGAGGAUGAAACAG [G18U C38U]: the self-cleavage was determined as 0.661.

Consider ACCGGAUGUGCUUUCCGUUCCGAUGAGUCCGUGAGGACGAAACAG [G18U U21C], for which the self-cleavage amounted to 0.544.

As for ACCGGAUGUGCUUUCCGUUCAGAUGAGUCCGUGAGGACGAAACAG [G18U U21A], the self-cleavage amounted to 0.381.

Take ACCGGAUGUGCUUUCCGUUCGGAUGAGUCCGUGAGGACGAAACAG [G18U U21G]: the self-cleavage stood at 0.426.

As to ACCGGAUGUGCUUUCCGGACUGGUGAGUCCGUGAGGACGAAACAG [U19A A23G], the self-cleavage turned out to be 0.426.

In the case of ACCGGAUGUGCUUUCCGGACUGCUGAGUCCGUGAGGACGAAACAG [U19A A23C], the self-cleavage came to 0.346.

In the case of ACCGGAUGUGCUUUCCGGACUGUUGAGUCCGUGAGGACGAAACAG [U19A A23U], the self-cleavage is 0.386.

In the case of ACCGGAUGUGCUUUCCGUUCUGAUGAGUCCGUGAGGACGAAUCAG [G18U A42U], the self-cleavage was found to be 0.339.

Regarding ACCGGAUGUGCUUUCCGUUCUGAUGAGUCCGUGAGGACGAAGCAG [G18U A42G], the self-cleavage is 0.37.

For ACCGGAUGUGCUUUCCGUUCUGAUGAGUCCGUGAGGACGAACCAG [G18U A42C], the self-cleavage is 0.371.

On to ACCGGAUGUGCUUUCCGGACUGAUGAGUCCGUGCGGACGAAACAG [U19A A34C], for which the self-cleavage came to 0.32.

As to ACCGGAUGUGCUUUCCGGACUGAUGAGUCCGUGUGGACGAAACAG [U19A A34U], the self-cleavage worked out at 0.388.

As to ACCGGAUGUGCUUUCCGGACUGAUGAGUCCGUGGGGACGAAACAG [U19A A34G], the self-cleavage was 0.36.

Take ACCGGAUGUGCUUUCCGUUCUGAUGAGUCCGAGAGGACGAAACAG [G18U U32A]: the self-cleavage amounted to 0.646.

For the variant ACCGGAUGUGCUUUCCGUUCUGAUGAGUCCGCGAGGACGAAACAG [G18U U32C], the self-cleavage came out at 0.857.

Take ACCGGAUGUGCUUUCCGUUCUGAUGAGUCCGGGAGGACGAAACAG [G18U U32G]: the self-cleavage amounted to 0.802.

On to ACCGGAUGUGCUUUCCGUUCUGAUAAGUCCGUGAGGACGAAACAG [G18U G25A], for which the self-cleavage was found to be 0.369.

On to ACCGGAUGUGCUUUCCGUUCUGAUUAGUCCGUGAGGACGAAACAG [G18U G25U], for which the self-cleavage is 0.324.

Consider ACCGGAUGUGCUUUCCGUUCUGAUCAGUCCGUGAGGACGAAACAG [G18U G25C], for which the self-cleavage amounted to 0.322.
